These results are taken from patent US12528864 (GlaxoSmithKline, dated 2026).

The target in assay [1] is T1, recombinant human CD96v2 (human, UniProt P40200-2 22-503, limits assumed, biotinylated (site not stated)).
T1 construct: Soluble recombinant protein used in MSD-SET; also called Biotinylated human CD96 protein
T1 sequence (looked up): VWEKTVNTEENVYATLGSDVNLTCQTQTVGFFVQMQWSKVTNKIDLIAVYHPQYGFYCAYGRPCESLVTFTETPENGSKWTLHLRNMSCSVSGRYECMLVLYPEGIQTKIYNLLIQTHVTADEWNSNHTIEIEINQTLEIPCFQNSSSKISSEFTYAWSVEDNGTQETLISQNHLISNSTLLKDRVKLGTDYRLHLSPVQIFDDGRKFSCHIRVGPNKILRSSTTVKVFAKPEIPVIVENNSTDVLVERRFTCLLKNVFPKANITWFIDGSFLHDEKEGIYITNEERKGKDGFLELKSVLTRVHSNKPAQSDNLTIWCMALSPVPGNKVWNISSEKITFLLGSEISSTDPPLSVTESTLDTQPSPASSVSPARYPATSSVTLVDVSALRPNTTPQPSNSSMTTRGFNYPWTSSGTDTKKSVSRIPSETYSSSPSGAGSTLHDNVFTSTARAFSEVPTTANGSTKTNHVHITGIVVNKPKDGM
The assay is described as follows: MSD solution equilibrium titration (MSD-SET), 25 C.

Assay [2] concerns the target T2, recombinant cynomolgus monkey CD96v2 (cynomolgus monkey, UniProt A0A2K5TWV6 22-487, biotinylated (site not stated)).
T2 construct: Soluble recombinant protein used in MSD-SET; also called cynomolgus monkey biotinylated CD96 protein
T2 sequence: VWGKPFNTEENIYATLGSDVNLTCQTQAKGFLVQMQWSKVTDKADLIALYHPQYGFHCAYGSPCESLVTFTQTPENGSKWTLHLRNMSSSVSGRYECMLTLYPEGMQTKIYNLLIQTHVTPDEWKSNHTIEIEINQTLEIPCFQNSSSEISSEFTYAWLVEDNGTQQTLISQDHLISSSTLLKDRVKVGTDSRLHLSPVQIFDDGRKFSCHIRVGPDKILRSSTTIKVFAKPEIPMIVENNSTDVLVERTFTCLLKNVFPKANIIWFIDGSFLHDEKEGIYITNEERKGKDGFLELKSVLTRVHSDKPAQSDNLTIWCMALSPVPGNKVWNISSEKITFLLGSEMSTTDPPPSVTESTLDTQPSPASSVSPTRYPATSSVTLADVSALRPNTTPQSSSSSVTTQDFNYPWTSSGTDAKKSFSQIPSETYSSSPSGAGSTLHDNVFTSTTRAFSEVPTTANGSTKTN
Briefly: MSD solution equilibrium titration (MSD-SET), 25 C.

For assay [3], the target named is T3, recombinant murine CD96v2 (mouse, UniProt Q3U0X8 22-536, limits assumed).
T3 construct: Soluble recombinant protein used in MSD-SET; also called mouse CD96
T3 sequence (looked up): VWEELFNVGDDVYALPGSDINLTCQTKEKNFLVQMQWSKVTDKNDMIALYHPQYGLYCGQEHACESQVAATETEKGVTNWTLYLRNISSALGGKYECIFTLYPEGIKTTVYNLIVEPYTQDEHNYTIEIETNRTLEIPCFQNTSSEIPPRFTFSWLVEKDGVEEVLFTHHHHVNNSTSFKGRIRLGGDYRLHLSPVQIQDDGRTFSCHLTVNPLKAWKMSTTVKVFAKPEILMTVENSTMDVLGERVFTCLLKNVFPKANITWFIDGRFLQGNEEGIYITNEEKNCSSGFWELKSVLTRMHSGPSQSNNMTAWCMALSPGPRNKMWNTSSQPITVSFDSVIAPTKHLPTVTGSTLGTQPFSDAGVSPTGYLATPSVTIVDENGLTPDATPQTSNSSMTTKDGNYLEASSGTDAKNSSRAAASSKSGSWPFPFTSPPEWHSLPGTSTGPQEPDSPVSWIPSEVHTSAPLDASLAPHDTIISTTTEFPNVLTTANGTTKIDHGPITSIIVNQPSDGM
The assay is described as follows: MSD solution equilibrium titration (MSD-SET), 25 C.

In assay [4] the target is T4, cynomolgus monkey CD96v2 expressed on cells (CHO cells; transiently transfected HEK cells) (cynomolgus monkey, UniProt A0A2K5TWV6 22-569).
T4 construct: the cell is named under assay; also called CHO-cyCD96; Cyno CD96v2
T4 sequence: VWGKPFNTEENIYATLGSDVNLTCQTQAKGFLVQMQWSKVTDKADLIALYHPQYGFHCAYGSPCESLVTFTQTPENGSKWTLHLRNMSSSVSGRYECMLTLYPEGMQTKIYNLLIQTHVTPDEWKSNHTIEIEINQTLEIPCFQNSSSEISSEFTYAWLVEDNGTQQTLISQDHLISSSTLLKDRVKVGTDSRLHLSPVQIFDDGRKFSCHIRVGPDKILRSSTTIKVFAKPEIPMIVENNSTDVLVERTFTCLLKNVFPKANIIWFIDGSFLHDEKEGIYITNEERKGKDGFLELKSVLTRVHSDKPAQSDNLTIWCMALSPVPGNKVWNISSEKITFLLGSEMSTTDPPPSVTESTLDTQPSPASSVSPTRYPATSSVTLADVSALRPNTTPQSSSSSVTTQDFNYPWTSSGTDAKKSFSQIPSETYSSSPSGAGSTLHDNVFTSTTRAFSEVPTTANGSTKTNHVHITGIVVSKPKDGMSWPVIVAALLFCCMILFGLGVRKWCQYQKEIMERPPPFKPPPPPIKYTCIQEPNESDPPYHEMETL
The assay is described as follows: flow cytometry on CHO cells expressing cynomolgus CD96v2.

Assay [5] concerns the target T1, recombinant human CD96v2. Briefly: MSD-SET solution equilibrium titration, antibody titrated against constant biotinylated CD96, free antigen detected.
For assay [6], the target named is T5, cynomolgus monkey CD96, native, on primary cynomolgus monkey T cells (cynomolgus monkey, UniProt A0A2K5TWV6 22-569).
T5 construct: whole, on cells
T5 sequence: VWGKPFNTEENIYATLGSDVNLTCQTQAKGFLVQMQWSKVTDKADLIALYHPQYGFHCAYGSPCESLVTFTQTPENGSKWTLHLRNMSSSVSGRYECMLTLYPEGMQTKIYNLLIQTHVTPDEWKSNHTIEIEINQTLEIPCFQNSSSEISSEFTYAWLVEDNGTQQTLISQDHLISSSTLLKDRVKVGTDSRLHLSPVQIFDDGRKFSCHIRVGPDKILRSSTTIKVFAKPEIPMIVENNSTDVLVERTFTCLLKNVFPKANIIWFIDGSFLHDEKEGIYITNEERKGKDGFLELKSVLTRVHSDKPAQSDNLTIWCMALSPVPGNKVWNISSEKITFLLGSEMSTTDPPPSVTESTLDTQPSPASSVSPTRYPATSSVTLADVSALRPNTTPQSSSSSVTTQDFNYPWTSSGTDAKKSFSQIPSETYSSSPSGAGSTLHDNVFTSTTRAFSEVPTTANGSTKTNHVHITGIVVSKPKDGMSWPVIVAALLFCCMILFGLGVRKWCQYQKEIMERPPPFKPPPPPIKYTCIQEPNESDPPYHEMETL
The assay is described as follows: flow cytometry on activated cynomolgus monkey CD3+ T cells; mean of 3 samples; cynomolgus monkey CD3+ T cells activated with anti-CD2/3/28 beads for 17 days; mean of 3 samples. Background: Flow cytometry measures light scatter and fluorescence of single cells or particles in a stream.

B1: 42Y073-86F08-66 (antibody)
heavy: not shown
light: DIQLTQSPSSLSASVGDRVTITCRASQSISSYLNWYQQKPGKAPKLLIYAASSLQSGVPSRFSGSGSGTDFTLTISSLQPEDFATYYCQQVLHTITFGGGTKVEIKRTVAAPSVFIFPPSDEQLKSGTASVVCLLNNFYPREAKVQWKVDNALQSGNSQESVTEQDSKDSTYSLSSTLTLSKADYEKHKVYACEVTHQGLSSPVTKSFNRGEC
notes: also called GSK 6097608; GSK6097608
With B1, the results for the Kd (with recombinant human CD96v2 [1]; in assay [2]; in assay [3]) were 0.02 nM, 0.278 nM and 0.479 nM, respectively. In addition, the EC50 (as a rule, the midpoint of the concentration-response curve) in assay [4] came out at 0.02 nM; in assay [6], 0.0766 nM. The “IC50 (read off the curve)” value in the assay with recombinant human CD96v2 [5] is about 0.06 nM.
